Molecular target: T1, His-CaM (native, Xenopus laevis) (Xenopus laevis, UniProt P0DP33 1-149)
T1 construct: calmodulin, Xenopus laevis, plasmid pET-15b-CaM [41]; also called native untreated CaM; recombinant His-CaM; source: E. coli BL21 (DE3), purified as previously described [8]
Experiment: pull-down; GST proteins (5 μg) bound to glutathione-sepharose beads incubated with soluble recombinant CaM proteins (His-CaM forms, no-tagged wild-type CaM, Met-to-Leu mutants); 10 mM potassium phosphate pH 7.0, 100 mM KCl, 1% Brij; 2 mM Ca2+ or EGTA in Fig. 2E; western blot with CaM antibody
Conditions: both partners purified

- binding result: binds
B1: GST-TRADD R235A (natural protein)
chain: MAAGQNGHEEWVGSAYLFVESSLDKVVLSDAYAHPQQKVAVYRALQAALAESGGSPDVLQMLKIHRSDPQLIVQLRFCGRQPCGRFLRAYREGALRAALQRSLAAALAQHSVPLQLELRAGAERLDALLADEERCLSCILAQQPDRLRDEELAELEDALRNLKCGSGARGGDGEVASAPLQPPVPSLSEVKPPPPPPPAQTFLFQGQPVVNRPLSLKDQQTFARSVGLKWRKVGASLQRGCRALRDPALDSLAYEYEREGLYEQAFQLLRRFVQAEGRRATLQRLVEALEENELTSLAEDLLGLTDPNGGLA
notes: TRADD, human, point mutant of GST-TRADD; also called R235A TRADD mutant; source: E. coli BL21 (DE3)

Source: article PMC4313936, “N-Terminal and C-Terminal Domains of Calmodulin Mediate FADD and TRADD Interaction” (PLoS ONE, 2015)
